Changes are numbered by the printed parent chain. Ends that are not written are not given here.
T1: PFV-Gag-NtD (Human spumaretrovirus, UniProt P14349)
T1 construct: HFV ht-(M1-S179); made in house; host or cells: E. coli Rosetta 2 (DE3)
T1 sequence (P14349 1-179): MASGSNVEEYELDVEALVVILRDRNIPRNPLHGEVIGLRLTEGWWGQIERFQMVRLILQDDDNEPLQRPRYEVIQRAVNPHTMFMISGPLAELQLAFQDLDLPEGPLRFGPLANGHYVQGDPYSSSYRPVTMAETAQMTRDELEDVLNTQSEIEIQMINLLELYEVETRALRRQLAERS

T2: PFV-Gag-NtD (amino terminal domain of Prototypic Foamy Virus Gag, residues 1-179) (Prototypic foamy virus (PFV), UniProt P14349 1-179)
T2 chain: T1 sequence (P14349 1-179)

B1: FFV-Gag-NtD: FFV Gag residues 1–154, N-terminal His-tag fusion expressed in E. coli (protein, UniProt O56860 1-154, looked up, fragment)
chain: MARELNPLQLQQLYINNGLQPNPGHGDIIAVRFTGGPWGPGDRWARVTIRLQDNTGQPLQVPGYDLEPGIINLREDILIAGPYNLIRTAFLDLEPARGPERHGPFGDGRLQPGDGLSEGFQPITDEEIQAEVGTIGAARNEIRLLREALQRLQA
modifications: N-terminal His-tag
notes: FFV Gag residues 1–154, N-terminal His-tag fusion expressed in E. coli
B2: PFV-Gag-NtD (amino terminal domain of Prototypic Foamy Virus Gag, residues 1-179) (domain or fragment)
chain: T1 sequence (P14349 1-179)
notes: source: E. coli Rosetta 2 (DE3), purified (Ni-NTA, Superdex 200 SEC); not shown: His-tag, N-terminal, kept
B3: Asn29 to glutamine (protein, UniProt P14349 1-179, looked up, variant N29Q)
chain: T1 sequence (P14349 1-179) with N29Q
modifications: N-terminal His-tag
B4: Val14/Leu21 to serine (protein)
chain: T1 sequence (P14349 1-179) with V14S, L21S
modifications: left off: His-tag, N-terminal, state not stated
B5: PFV-Gag-NtD: PFV-Gag residues 1–179, N-terminal His-tag fusion expressed in E. coli (protein, UniProt P14349 1-179, looked up, fragment)
chain: T1 sequence (P14349 1-179)
modifications: N-terminal His-tag
notes: PFV-Gag residues 1–179, N-terminal His-tag fusion expressed in E. coli
B6: triple substitution where Val14, Val18 and Leu21 were all substituted by serine (protein, UniProt P14349 1-179, looked up, variant V14S V18S L21S)
chain: T1 sequence (P14349 1-179) with V14S, V18S, L21S
modifications: N-terminal His-tag
B7: PFV Env leader peptide residues 5-18 (peptide)
peptide: MTLQQWIIWKKMNK
notes: source: synthetic peptide, bought HPLC purified: Pepceuticals Ltd

Assays:
[1] = target: FFV Env leader peptide 1-30 (Feline foamy virus) (UniProt O56861); assay: given as Ka; settings: cited from earlier work
[2] = target: FFV-Gag-NtD (feline foamy virus Gag residues 1-154), His tag removed (feline foamy virus (FFV)); assay: AUC
[3] = target: T1, PFV-Gag-NtD; assay: ITC binding of Env1–20 to PFV-Gag-NtD; parameters: species or system Prototypic Foamy Virus (PFV); settings: 1 mM Env peptide injected into 50 µM PFV-Gag-NtD, 25 mM Na-phosphate pH 6.55, 100 mM NaCl, 0.5 mM TCEP, read-out: equilibrium association constant (K) (converted)
Description: The DNA sequences coding for PFV-Gag residues 1–179 (PFV-Gag-NtD) and FFV residues 1–154 (FFV-Gag-NtD) were amplified by PCR from template plasmids pcziGag4 and pcDWF003 containing the PFV and FFV Gag genes respectively. PCR products were inserted into a pET47b expression vector (Novagen) using ligation independent cloning in order to produce N-terminal His-tag fusions with 3C protease cleavage sites. The correct sequence of expression constructs was verified by automated DNA sequencing (Beckman Coulter Genomics). His-tagged PFV- and FFV-Gag-NtD were expressed in the E. coli strain Rosetta 2 (DE3) and purified using Ni-NTA affinity (Qiagen) and size exclusion chromatography on Superdex 200 (GE healthcare). Selenium was incorporated into PFV-Gag-NtD by replacement of methionine with seleno-methionine in defined culture medium and by inhibition of methionine biosynthesis just prior to IPTG induction. Verification of the processed N-terminal methionine, correct molecular mass and degree of selenium incorporation was obtained by electrospray ionisation mass-spectrometry. Peptides comprising residues 1–20 and 5–18 from the PFV-Env leader region were purchased HPLC purified from Pepceuticals Ltd.
ITC was carried out using an ITC-200 calorimeter (MicroCal). […] Data was analysed using the Origin-based software provided by the manufacturers.

[4] = target: FFV-Gag-NtD (feline foamy virus Gag residues 1-154), His-tagged (feline foamy virus (FFV)); assay: AUC
[5] = target: FFV-Gag-NtD (feline foamy virus Gag residues 1-154), His-tagged (feline foamy virus (FFV)); assay: SEC-MALS
[6] = SEC-MALLS solution molecular weight of Gag-NtDs; type: physicochemical; settings: Superdex 200 10/300 GL, 20 mM Tris-HCl, 150 mM NaCl, 0.5 mM TCEP, pH 8.0; 12-1.5 mg/ml, concentration invariant
Method: Size exclusion chromatography coupled multi-angle laser light scattering (SEC-MALLS) was used to determine the molar mass of FFV- and PFV-Gag-Ntd. Samples ranging from 1.5 to 12.0 mgml^−1 were applied in a volume of 100 µl to a Superdex 200 10/300 GL column equilibrated in 20 mM Tris-HCl, 150 mM NaCl and 0.5 mM TCEP, pH 8.0, at a flow rate of 0.5 ml/min. The scattered light intensity and the protein concentration of the column eluate were recorded using a DAWN-HELEOS laser photometer and OPTILAB-rEX differential refractometer respectively. The weight-averaged molecular mass of material contained in chromatographic peaks was determined from the combined data from both detectors using the ASTRA software version 6.0.3 (Wyatt Technology Corp., Santa Barbara, CA, USA).

[7] = Sedimentation velocity AUC of Gag-NtDs; type: physicochemical; settings: for ƒ/ƒ0 (D20,w): frictional ratio calculated from D20,w; for ƒ/ƒ0 (D20,w) / ƒ/ƒ0 (S20,w): discrete component analysis; for ƒ/ƒ0 (S20,w): frictional ratio calculated from S20,w; for sedimentation coefficient S20,w: no concentration dependency over the range measured; for D20,w (×10^7) / Mw C(S) / S20,w (×10^13): sedimentation velocity; for D20,w (×10^7) / S20,w (×10^13): 293 K, pH 7.5, Crange 20–90 µM (PFV), 30–130 µM (FFV); for Mw C(S): C(S) analysis; for S20,w (×10^13): discrete component analysis, 50,000 rpm; for Mw (S/D): weight averaged molecular weight from discrete component analysis; for ƒ/ƒ0 C(S): weight-averaged frictional ratio from best fit C(S) distribution function
Method: (§1) Sedimentation velocity experiments were performed in a Beckman Optima Xl-I analytical ultracentrifuge using conventional aluminium double sector centrepieces and sapphire windows. Solvent density and the protein partial specific volumes were determined as described. Prior to centrifugation, samples were prepared by exhaustive dialysis against the buffer blank solution, 20 mM Tris-HCl, 150 mM NaCl and 0.5 mM TCEP, pH 7.5. Centrifugation was performed at 50,000 rpm and 293 K in an An50-Ti rotor. Interference data were acquired at time intervals of 180 sec at varying sample concentration (0.5–2.5 mg/ml). Data recorded from moving boundaries was analysed using both a discrete species model and in terms of the size distribution functions C(S) using the program SEDFIT [90], [91], [92]. For analysis of Env peptide binding, sedimentation velocity experiments were conducted in 3 mm pathlength centrepieces using equimolar mixtures (75 µM) of PFV-Gag-NtD and Env peptides. In these experiments, radial absorbance scans at 280 nm were also recorded along with the interference data.

[8] = Sedimentation equilibrium AUC of Gag-NtDs; type: physicochemical; settings: for weight averaged molecular weight, sedimentation equilibrium: multispeed, global fit with single ideal molecular species model; for Mw (sedimentation equilibrium): weight averaged, Global SE analysis, pH 7.5
Method: Sedimentation equilibrium experiments were performed in a Beckman Optima XL-I analytical ultracentrifuge using charcoal filled Epon six-channel centrepieces in an An-50 Ti rotor. Prior to centrifugation, samples were dialyzed exhaustively against the buffer blank, 20 mM Tris-HCl, pH 7.5, 150 mM NaCl, 0.5 mM TCEP. After centrifugation for 18 h, interference data was collected 2-h intervals until no further change in the profiles was observed. The rotor speed was then increased and the procedure repeated. Data were collected on samples of different concentrations of FFV- and PFV-Gag-NtD (14–100 µM) at three speeds and the program SEDPHAT [93], [94] was used to determine weight-averaged molecular masses by nonlinear fitting of individual multi-speed equilibrium profiles (A versus r) to a single-species ideal solution model.

[9] = target: the molecule itself; assay: SEC-MALS
[10] = system: PFV Env leader peptide (Env-LP), Env1–20; assay: SV-AUC binding of PFV-Gag-NtD mutants to Env1–20 (Env-LP); parameters: species or system Prototypic Foamy Virus (PFV); settings: for Gag-Env binding (in words): 75 µM equimolar Gag-NtD mutant and Env1–20
Method: as §1
Data were analysed using a general binding expression, Eq. 1. This expression relates the association constant Ka to the fraction of bound peptide θ (θ = [PL]/[Lt]) in terms of the total concentrations of peptide [Lt] and protein [Pt] and is a modification of the formulae employed in [95], [96]. [drawing 1] (1) In sedimentation velocity experiments θ was determined from the integrated absorbance of the 3S species in the C(S) function that best fits the sedimentation data. As equimolar ratios of peptide and protein were employed ([Lt] = [Pt]) Eq. 1 can be simplified and equilibrium association constants determined from Eq. 2. [drawing 2] (2)

[11] = target: T2, PFV-Gag-NtD (amino terminal domain of …); assay: AUC
[12] = target: B2; assay: AUC; sedimentation velocity of 75 µM equimolar mixtures of Gag-NtD and Env peptide, absorbance at 280 nm; bound fraction from the integrated absorbance of the 3S species in C(S); settings: both partners purified

Molecule: FFV Gag (from UniProt O56860)
- Kd [1]: 15.4 µM

Molecule: FFV-Gag-NtD (feline foamy virus Gag residues 1-154), His tag removed (domain or fragment)
- stoichiometry N [2]: 2

Molecule: MAPPMTLQQWIIWKKMNKAH [Env1–20]
- Kd [3]: 6.67 µM

Molecule: FFV-Gag-NtD (feline foamy virus Gag residues 1-154), His-tagged (domain or fragment)
- stoichiometry N [4]: 2
- stoichiometry N [5]: 2

Molecule: B1
- solution molecular weight (SEC-MALLS) [6]: 34.0 kDa
- ƒ/ƒ0 (D20,w) [7]: 1.42
- ƒ/ƒ0 (S20,w) [7]: 1.49
- sedimentation coefficient S20,w [7]: 2.72
- D20,w (×10^7) [7]: 6.81±0.3 cm^2 sec^−1
- Mw C(S) [7]: 37.4±1 kD
- S20,w (×10^13) [7]: 2.72±0.01 sec
- Mw (S/D) [7]: 36.1±1.5 kD
- ƒ/ƒ0 C(S) [7]: 1.47
- weight averaged molecular weight, sedimentation equilibrium [8]: 33.7 kDa
- Mw (sedimentation equilibrium) ([8]; Crange 14–50 µM, FFV-154 sample with the His tag removed): ^h33.7±1 kD

Molecule: B2
- stoichiometry N [9]: 2

Molecule: B3
- Gag-Env binding (in words) [10]: little effect on Env binding

Molecule: B4
- reduction of Gag-Env affinity (fold) ([10]; 75 µM equimolar Gag-NtD mutant and Env1–20, relative to wt PFV-Gag-NtD): twenty-fold

Molecule: B5
- solution molecular weight (SEC-MALLS) [6]: 40.0 kDa
- ƒ/ƒ0 (D20,w) [7]: 1.52
- ƒ/ƒ0 (S20,w) [7]: 1.48
- sedimentation coefficient S20,w [7]: 3.08
- D20,w (×10^7) [7]: 5.96±0.04 cm^2 sec^−1
- Mw C(S) [7]: 48.2±1 kD
- S20,w (×10^13) [7]: 3.08±0.02 sec
- Mw (S/D) [7]: 46.7±0.2 kD
- ƒ/ƒ0 C(S) [7]: 1.54
- weight averaged molecular weight, sedimentation equilibrium [8]: 44 kDa
- Mw (sedimentation equilibrium) ([8]; Crange 30–100 µM, His-tagged): 44±2 kD

Molecule: B6
- Gag-Env binding (in words) [10]: reduced binding to an undetectable level

Molecule: B7
- Kd [11]: 49.4 µM
- Ka [12]: 20000 M⁻¹

From PMC3649970, “A Unique Spumavirus Gag N-terminal Domain with Functional Properties of Orthoretroviral Matrix and Capsid” (PLoS Pathogens, 2013)
